experiment: soluble fraction after stress (log2 fold change); higher = more stays soluble; pooled small domains, quantitative proteomics; settings: stress: 50 degC
Method in brief: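 The stress applied to every library was 50°C. These custom libraries of small protein domains were pooled and measured at high throughput with quantitative proteomics as the read-out. Aggregation propensity is expressed as the base-two logarithm of the fold change in how much of each protein remains soluble. The higher the value, the more of that protein stays in solution.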

Going from “HMNREEFLSQLERLLYDIPAQEREEALEYYNGYFDDAGKEKEAEVIQELGSPGKVAAIIKADLSG” to “HMAEWLFDARKIPDEVMNYLRRIAVQAIEEKHYSPELVADLLGISRSSIYDWLNWYRNGGEEDLDTRKA”, the “soluble fraction (log2)” value falls from -0.0285 to -0.613.

“HMKKIDVEVVRSQLIAWMADNGKSQAEVSKSMGISASALSMFIKGTYTGDNEQIGRKAAALMDLVHRQSA” and “HMDRVSEITLTRLRDYAADGQVRTATLTHRTNVVTGTLRDGRRFSAGVPPMYGDELTTFLLDNGVRVDSDN” are within 0.2 log units of each other in “soluble fraction (log2)” value: 0.0121 for the first, -0.167 for the second.

“HMNTGIPHQEVIKKLYSFAEGGDWKGLKEELNRIKEYTLFYNSVKELADSFEINRLIEKLKTYIF” and “HMIKRDLAFSEFIAEVKAGQVREVTIKGNSISGNLNDGREFNTYAPNDPNLVKTLTDQGVLIRAIPLE” are within 0.2 log units of each other in “soluble fraction (log2)” value: 0.0146 for the first, -0.0273 for the second.

First: HMGDAIPVPDVSGFSEDQAMNNLRKVGLRPKATYVADDNTAKGYVTGTSPAKNIEVAPDSEVIVYVSSGP
Second: HMKIRKAVIPAAGLGTRVLPASKSIPKEMLPIVDKPVIQYIVEEAVKAGITEILIITGRGKGAIEDHFDRS
The “soluble fraction (log2)” value of the first is higher: 0.238 for the first, -0.122 for the second.

Compared with “HMGGEKLPAPVAGTLLRYSVAEGARVSEGQTVIILESMKMELEINTPKAGVIHFLAAVGAQVAEGDTLAEI”, “HMDTRSSARKALDAVNLLLETYGAKAYQHSYEIAGRRQQFQTPGDFMAFRSRLMAEVATEENAARINA” is higher in “soluble fraction (log2)” value: -1.82 for the first, 0.152 for the second.

Compared with “HMGMYFTEMRKNEGLIALNGVAESNKRVSDLMDNLKDSSSFDAADIKAVKSGSGDASSLMDFELLVT”, “HMGISSESIKTFIREIVENEDPKAPLSDQTMVELLAERGIDISRRTVAKYRDEMNLPSSSKRKR” is higher in “soluble fraction (log2)” value: 0.113 for the first, 0.462 for the second.

“HMSMSTVGERIKKKRKNLNFTQQELAAKLNISAQAVSKWENGVALPDLGLMPKLAQVLESTVDGLLGYQGA” and “HMRQHHMIISTKLGTPKEELAKLVSGFEDQGLRVSVITGTDYTVIGLVGDTTHLDEKRIRANPYVDNVQRV” are within 0.2 log units of each other in “soluble fraction (log2)” value: 0.0315 for the first, -0.0184 for the second.

Compared with “HMLSTRERMSSLMAQLQVQQFMPFHRLFTISEGRMGVIVTFLAMMELVKENLIKLIQAQEYGPIHVSLG”, “HMSSDLDQYMKNIRKQHNLSKREFAKQLGISAATIVRIENGITVSPSKNLISKLAYYLQKSEVEILQDIQS” is lower in “soluble fraction (log2)” value: 0.0428 for the first, -1.08 for the second.

First: HMNGEDVTDAIRLPQISQYASVVSAYPGVRAFLLEMQRDFARKGSVIMDGRDIGTVVLPEAEVKIFLT
Second: HMIQVNKTQALIIEEMRDNPNITLLELQKTLSLGRTAIQNNVSSLRKRQIIKRVGSNKNGYWEVTDK
The “soluble fraction (log2)” value of the first is higher: -0.025 for the first, -1.95 for the second.

Going from “HMKGLKERLLYFIEYKGLPVQMFEKIVGLSNAAVSKMGDNTRRSTIDKISKSFPELDVNWLLTGQGEMLSY” to “HMQSAMALTKDLIEQQGKYYHRGQPFTGVGFAKNKKGKFVTEEPFKNGLLHGKRVNYDHNGHVLAREK”, the “soluble fraction (log2)” value rises from -0.255 to 0.264.

First: HMSSRSLTYSDFIERVDAGQVDAVTLDGERIVIRAKDGNTYVAIKPQGEDVTGSLTRDLIAKGVDVEAEPQ
Second: HMVNTVEVQGNTIYSAEEIRSASGIQKGDNLFTLNKEAAAGSIKASLPYVETVSIIRFLPDKIVIEVKE
The “soluble fraction (log2)” value of the first is higher: 0.0928 for the first, -0.473 for the second.

First: HMAPAYELTEEETKIIEILKANENIDLNELKSQAALSGKKWDKSMKNLAKYNLTKVTVDGDAKTVAYLA
Second: HMRNTETMKEIQAFVEDYFFEYHQSPSMQKVADAIGTSKSTAYYYVMEMARNGMLHYDGKTIETPHTQKS
The “soluble fraction (log2)” value of the first is higher: 0.0932 for the first, -1.09 for the second.

Going from “HMELEDTYTKNLDASLARLDEYQASKGLTDEQVDEVINSLIADAENIIMGVFTPELIDSKLKAMNYDQDV” to “HMDKNNLLIIYRTNSEGTPYAFSVTPSAKSLDALHKDAKEMLPFLEKSMNNFFSIQIWERAEYLKY”, the “soluble fraction (log2)” value falls from 0.156 to -0.643.

Going from “HMKQMNETQQKAFEIYLDSATFETDYKPISEEQLAAKLDALGLKGSSSSINRWKKDFNWAQALQNKVTLAM” to “HMNPSFTMGTRIKEYIDAHYLEDLKLADIAEALHINLYYLSHTFKDLTGSSPMQYIIRRRIEE”, the “soluble fraction (log2)” value falls from -0.11 to -0.778.

Going from “HMGFALLIAIERTGNTTYFVKLTLIKKGSDSDVLKDSFSVSQGDLVGTATYDSVIANRIREKTAAMWQKAT” to “HMDLLAESLTRREAEVAALAARGLTNRAIAELFGLSVRTAETHLHRAMGKLGANRREDLLLHADRLDPG”, the “soluble fraction (log2)” value rises from -2.13 to -0.629.

Compared with “HMGKKQLVVDLQSIITDVPAALKSYGLEIGQDGKSLIYTYDTKGERTGITTLLNDLQKAGLQMTDMKTQQ”, “HMTELKKTAVDTWVKDLGTEQALAKLDTLAVVKLRRLAREYKAFGIAGRAISKADKGMLLAEFRAYYEN” is lower in “soluble fraction (log2)” value: 0.0536 for the first, -1.86 for the second.

First: HMGIAKYRQVTEWIQNRIATGELNRGDQIESENDISRTFGISRQTVRHALGLLEQQGILTRIQGRGTFVRD
Second: HMQIAGLDDIDNRIIDLLLKNGRASYSEIGAAVGLSRTAAKNRIRALEASGIIRGYQAILDPQA
The “soluble fraction (log2)” value of the first is lower: -0.661 for the first, -0.205 for the second.

Going from “HMKVLFLESIEGSASMGEIKDVANGYARNFLFPNGFAVPATPKNLKNVEELQAKELEIQTERDNWAA” to “HMVAGHLQEKKGYFYMVLTYRDHEGKRKSKWLPTGLTIKGNKKRAQDLLQDARKNFVPDIPT”, the “soluble fraction (log2)” value falls from -0.0454 to -1.32.

“HMKPSTVSVPDVSGDKLSTAKMIIRKSGLKVGDVQKIEDDNVGAGKVVRTNPSAGSKKREGSSVDIFVASA” and “HMHSILDDIEGIGPARRKALMRHYMNLDAIKSATVEELAAVPSMNEKSAKAVHNFFHQQKKD” are within 0.2 log units of each other in “soluble fraction (log2)” value: 0.16 for the first, 0.242 for the second.

Compared with “HMTINQIDPASGRKVGYWIITGEMKPKEGFSPDNKIEEGIYVNSRKSGKWIKYWPNGNVRSEIIYKNGR”, “HMPTITIQRGIILSSTTKGFIDELSHSQIKNAIVERLGEHHVMIHESQLDAVIKYAQKKEAVINIYL” is higher in “soluble fraction (log2)” value: -0.549 for the first, -0.0325 for the second.

“HMSKSIELMNEIKKYIEEYYLQYRQSPSTTKIAEAVGIARGTAYKYLVEMSERNMIEYDGQEISTEVTRKY” and “HMGGGTPEERLATLAAIAERQEMLLERLGPNNPLVSLGQYSRTLSRMVQLAGFKDASQYFNELPLDFQMPE” are within 0.2 log units of each other in “soluble fraction (log2)” value: -0.0213 for the first, -0.212 for the second.

“HMSQVSTKYINVSSAYVRSKPSKDGEIVTSLIKNTDVTVTGENGDWYKIKFNNYEGYIFKELLSDSKLEE” and “HMEKTKLPNLVDFTYRQAEALLQTHGLKVGKVERVPDVGQTVIKAKYKGKVISWGTELNKGEKIDLVIGKG” are within 0.2 log units of each other in “soluble fraction (log2)” value: 0.15 for the first, 0.189 for the second.

“HMKKPRKTSRKSIENAAIFYLQRFSSSIENLRRVLMRRVYRSAQYHNTKPEEDAKIVDSIIYRLIETGVL” and “HMGEGIRIDSTAVVQVGEKMYAYLGGDGFSKEFWTNLPASGELAVTLKFEPIPMDAESLDFYEMPA” are within 0.2 log units of each other in “soluble fraction (log2)” value: -0.0617 for the first, 0.0315 for the second.

Compared with “HMRQKTTFFATESFELPNGEKVEEGQIFRLNDGAFNIAEQQGITRFLTSEANYGRMIAANAEVEKAKLDA”, “HMATAEETTPLWARNRLSHAIFGPGSVTGEDERSFEVAFDNGDTLNFSKKSAHLYFTAMSSR” is lower in “soluble fraction (log2)” value: 0.268 for the first, -0.0942 for the second.

First: HMARDSYNGVQRTISTLLGQGNYDRAYDVAVGARGQMSKQQWSDVAKRIYEVSGIKIDDSVKY
Second: HMTNIQFINLKMTDNHPWIHQYIKDIILPPQTRIVMIKRNDIKTIPKGERRIEKDDELILSAFESQT
The “soluble fraction (log2)” value of the first is higher: 0.159 for the first, -1 for the second.

Going from “HMLDGFEVGMTVMKKSGTEIGFTGWPSFADKDELPIIERIDTSDSTLLLKFKDMSWWIKASLVEPS” to “HMNVPATAEAYEALLADAESVGKSLWGHEAKRFAAEQALLSAGLREVIQVDPDKARELALRLRGLLDEYRG”, the “soluble fraction (log2)” value rises from -1.62 to 0.13.

Compared with “HMEFLDLEIDVDATDGRLLAFLAAKGEVVSQTFNDTIITVRVRMPTGAMGQVHRSALAIRPA”, “HMSRLLTTRQREVFEVATREGFWDVPRRINLSELAKVLGVAKSTLSSQLQRIESAVFHAFTDEIRRQS” is lower in “soluble fraction (log2)” value: -0.507 for the first, -2.16 for the second.

In the case of “HMALLSDEERIATVFAARLGGYSHQEIYKLLQDRFGPSLPAAYSEKSVLTDLQTALSQVPSL”, the “soluble fraction (log2)” value is reported as -0.208.

From the domain aggregation screens of Martell et al. (2025)
